Source: article PMC6297355 (2018)
Each block holds one binder with its values, some of them ahead of it.

Target: HSPB1c/Hsp27c (model human HSPB fragment) (human, UniProt P04792 80-176)
Assay: ITC

HSPB1c/Hsp27c (model human HSPB fragment), sequence (P04792 80-176): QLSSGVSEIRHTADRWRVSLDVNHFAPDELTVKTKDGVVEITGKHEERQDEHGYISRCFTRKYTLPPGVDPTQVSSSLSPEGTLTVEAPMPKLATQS

Kd: > 100000 nM
B1: BAG3 with deletion of both IPV motifs (recombinant) (natural protein)
chain: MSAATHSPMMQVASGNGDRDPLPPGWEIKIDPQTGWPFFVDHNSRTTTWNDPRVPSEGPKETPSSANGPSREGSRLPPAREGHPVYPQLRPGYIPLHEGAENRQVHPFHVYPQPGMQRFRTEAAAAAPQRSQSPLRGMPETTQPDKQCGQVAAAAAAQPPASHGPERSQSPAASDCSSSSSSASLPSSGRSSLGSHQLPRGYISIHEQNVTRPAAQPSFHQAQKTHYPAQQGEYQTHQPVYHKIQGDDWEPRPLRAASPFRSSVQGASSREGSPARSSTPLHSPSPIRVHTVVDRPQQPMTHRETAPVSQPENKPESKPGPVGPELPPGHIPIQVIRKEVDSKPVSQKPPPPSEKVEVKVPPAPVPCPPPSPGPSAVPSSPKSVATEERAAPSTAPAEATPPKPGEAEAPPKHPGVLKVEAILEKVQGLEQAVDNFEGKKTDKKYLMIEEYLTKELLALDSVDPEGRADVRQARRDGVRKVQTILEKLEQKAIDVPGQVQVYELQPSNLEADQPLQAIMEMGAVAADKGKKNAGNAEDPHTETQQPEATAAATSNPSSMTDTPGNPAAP

Kd: 2000 nM
B2: BAG3 with complete deletion of the IPV2 motif (recombinant) (natural protein)
chain: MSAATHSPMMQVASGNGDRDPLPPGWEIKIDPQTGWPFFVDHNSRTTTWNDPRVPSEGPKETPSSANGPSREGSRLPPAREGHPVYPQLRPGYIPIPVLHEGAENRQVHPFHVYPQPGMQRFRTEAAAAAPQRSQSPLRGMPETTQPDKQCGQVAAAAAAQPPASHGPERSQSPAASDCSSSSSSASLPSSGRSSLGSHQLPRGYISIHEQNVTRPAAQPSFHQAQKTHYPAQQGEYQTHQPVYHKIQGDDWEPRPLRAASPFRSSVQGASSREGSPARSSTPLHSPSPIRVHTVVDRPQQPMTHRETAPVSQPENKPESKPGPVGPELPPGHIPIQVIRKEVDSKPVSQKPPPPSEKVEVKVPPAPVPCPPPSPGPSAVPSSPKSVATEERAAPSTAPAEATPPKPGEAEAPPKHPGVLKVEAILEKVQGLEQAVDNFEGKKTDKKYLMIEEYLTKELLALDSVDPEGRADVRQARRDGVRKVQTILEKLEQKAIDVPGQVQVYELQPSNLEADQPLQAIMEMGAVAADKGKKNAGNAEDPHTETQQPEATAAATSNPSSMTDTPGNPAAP

Kd: 490 nM
B3: BAG3^WT (recombinant) (natural protein)
chain: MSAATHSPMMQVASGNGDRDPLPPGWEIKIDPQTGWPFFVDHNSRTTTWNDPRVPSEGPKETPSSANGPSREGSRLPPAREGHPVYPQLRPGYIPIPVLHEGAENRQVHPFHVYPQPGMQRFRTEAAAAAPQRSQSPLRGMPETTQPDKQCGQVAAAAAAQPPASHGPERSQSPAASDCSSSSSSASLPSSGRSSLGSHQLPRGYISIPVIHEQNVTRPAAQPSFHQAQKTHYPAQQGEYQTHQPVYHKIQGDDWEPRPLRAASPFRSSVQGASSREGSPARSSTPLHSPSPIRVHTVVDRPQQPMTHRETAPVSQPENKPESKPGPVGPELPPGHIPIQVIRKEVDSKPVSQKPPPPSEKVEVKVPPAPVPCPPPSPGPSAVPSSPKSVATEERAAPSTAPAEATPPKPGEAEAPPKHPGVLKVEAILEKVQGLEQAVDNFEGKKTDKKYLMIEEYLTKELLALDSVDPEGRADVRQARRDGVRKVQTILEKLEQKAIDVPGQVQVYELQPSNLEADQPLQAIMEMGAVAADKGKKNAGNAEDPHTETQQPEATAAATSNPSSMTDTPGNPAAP
